# B1: human TA PD1-IL2v, MT204, 2xPQARK, in line (antibody, human IgG1, kappa, L234A L235A)
# light: DIVMTQSPDSLAVSLGERATINCKASESVDTSDNSFIHWYQQKPGQSPKLLIYRSSTLESGVPDRFSGSGSGTDFTLTISSLQAEDVAVYYCQQNYDVPWTFGQGTKVEIKRTVAAPSVFIFPPSDEQLKSGTASVVCLLNNFYPREAKVQWKVDNALQSGNSQESVTEQDSKDSTYSLSSTLTLSKADYEKHKVYACEVTHQGLSSPVTKSFNRGEC
# heavy 1: EVQLLESGGGLVQPGGSLRLSCAASGFSFSSYTMSWVRQAPGKGLEWVATISGGGRDIYYPDSVKGRFTISRDNSKNTLYLQMNSLRAEDTAVYYCVLLTGRVYFALDSWGQGTLVTVSSASTKGPSVFPLAPSSKSTSGGTAALGCLVKDYFPEPVTVSWNSGALTSGVHTFPAVLQSSGLYSLSSVVTVPSSSLGTQTYICNVNHKPSNTKVDKKVEPKSCDKTHTCPPCPAPEAAGGPSVFLFPPKPKDTLMISRTPEVTCVVVDVSHEDPEVKFNWYVDGVEVHNAKTKPREEQYNSTYRVVSVLTVLHQDWLNGKEYKCKVSNKALGAPIEKTISKAKGQPREPQVCTLPPSRDELTKNQVSLSCAVKGFYPSDIAVEWESNGQPENNYKTTPPVLDSDGSFFLVSKLTVDKSRWQQGNVFSCSVMHEALHNHYTQKSLSLSPG
# heavy 2: not shown
# notes: Bivalent human PD1-targeted human IgG PG LALA with IL2v and MT204 scFv mask 'in-line' on the C-terminus of the Fc knob chain, two PQARK sites; also called P1AG9606; P1AG9606-008
# B2: human TA PD1-IL2v, MT204, non cleavable, in line (antibody, human IgG1, kappa, L234A L235A)
# light: B1 light
# heavy 1: B1 heavy 1
# heavy 2: not shown
# notes: Bivalent human PD1-targeted human IgG PG LALA with masked IL2v in-line on the Fc knob chain and no matriptase sites (non-cleavable control); also called P1AG5740; P1AG5740-004
# B3: human PD1-IL2v, unmasked, in line (antibody, human IgG1, kappa, L234A L235A)
# light: B1 light
# heavy 1: B1 heavy 1
# heavy 2: not shown
# notes: Bivalent human PD1-targeted human IgG PG LALA with IL2v fused to the C-terminus of the Fc knob chain (non-masked control); also called P1AA7146; P1AA7146-006
# B4: human TA PD1-IL2v, MT204, 2xPQARK, knob/hole (antibody, human IgG1, kappa, L234A L235A)
# light: B1 light
# heavy 1: EVQLLESGGGLVQPGGSLRLSCAASGFSFSSYTMSWVRQAPGKGLEWVATISGGGRDIYYPDSVKGRFTISRDNSKNTLYLQMNSLRAEDTAVYYCVLLTGRVYFALDSWGQGTLVTVSSASTKGPSVFPLAPSSKSTSGGTAALGCLVKDYFPEPVTVSWNSGALTSGVHTFPAVLQSSGLYSLSSVVTVPSSSLGTQTYICNVNHKPSNTKVDKKVEPKSCDKTHTCPPCPAPEAAGGPSVFLFPPKPKDTLMISRTPEVTCVVVDVSHEDPEVKFNWYVDGVEVHNAKTKPREEQYNSTYRVVSVLTVLHQDWLNGKEYKCKVSNKALGAPIEKTISKAKGQPREPQVCTLPPSRDELTKNQVSLSCAVKGFYPSDIAVEWESNGQPENNYKTTPPVLDSDGSFFLVSKLTVDKSRWQQGNVFSCSVMHEALHNHYTQKSLSLSPGGGGGSGGGGSPQARKGGGGSGGGGSGGGGSGGGGSGGGEVQLVESGGGLVQPGGSLRLSCAASGFTFSSYTLAWVRQAPGKGLEWVAAIDSSSYTYSPDTVRGRFTISRDNAKNSLYLQMNSLRAEDTAVYYCARDSNWDALDYWGQGTTVTVSSGGGGSGGPQARKGGGGSGGGDIQMTQSPSSLSASVGDRVTITCKASQNVGTNVGWYQQKPGKAPKALIYSASFRYSGVPSRFSGSGSGTDFTLTISSLQPEDFATYYCQQYYTYPYTFGGGTKVEIK
# heavy 2: not shown
# notes: Bivalent human PD1-targeted human IgG PG LALA; also called P1AG9607; P1AG9607-006
# B5: TA PD1-IL2v, MT204, non cleavable, N-term (antibody, human IgG1, kappa, L234A L235A)
# light chain of the anti-human PD1 Fab (C02011851-A): B1 light
# heavy chain, Fc hole, PG LALA (C01483382-H): EVQLLESGGGLVQPGGSLRLSCAASGFSFSSYTMSWVRQAPGKGLEWVATISGGGRDIYYPDSVKGRFTISRDNSKNTLYLQMNSLRAEDTAVYYCVLLTGRVYFALDSWGQGTLVTVSSASTKGPSVFPLAPSSKSTSGGTAALGCLVKDYFPEPVTVSWNSGALTSGVHTFPAVLQSSGLYSLSSVVTVPSSSLGTQTYICNVNHKPSNTKVDKKVEPKSCDKTHTCPPCPAPEAAGGPSVFLFPPKPKDTLMISRTPEVTCVVVDVSHEDPEVKFNWYVDGVEVHNAKTKPREEQYNSTYRVVSVLTVLHQDWLNGKEYKCKVSNKALGAPIEKTISKAKGQPREPQVCTLPPSRDELTKNQVSLSCAVKGFYPSDIAVEWESNGQPENNYKTTPPVLDSDGSFFLVSKLTVDKSRWQQGNVFSCSVMHEALHNHYTQKSLSLSPGK
# MT204 scFv mask - non-cleavable linker - IL2v - Fc knob chain, PG LALA (C2184220946-K): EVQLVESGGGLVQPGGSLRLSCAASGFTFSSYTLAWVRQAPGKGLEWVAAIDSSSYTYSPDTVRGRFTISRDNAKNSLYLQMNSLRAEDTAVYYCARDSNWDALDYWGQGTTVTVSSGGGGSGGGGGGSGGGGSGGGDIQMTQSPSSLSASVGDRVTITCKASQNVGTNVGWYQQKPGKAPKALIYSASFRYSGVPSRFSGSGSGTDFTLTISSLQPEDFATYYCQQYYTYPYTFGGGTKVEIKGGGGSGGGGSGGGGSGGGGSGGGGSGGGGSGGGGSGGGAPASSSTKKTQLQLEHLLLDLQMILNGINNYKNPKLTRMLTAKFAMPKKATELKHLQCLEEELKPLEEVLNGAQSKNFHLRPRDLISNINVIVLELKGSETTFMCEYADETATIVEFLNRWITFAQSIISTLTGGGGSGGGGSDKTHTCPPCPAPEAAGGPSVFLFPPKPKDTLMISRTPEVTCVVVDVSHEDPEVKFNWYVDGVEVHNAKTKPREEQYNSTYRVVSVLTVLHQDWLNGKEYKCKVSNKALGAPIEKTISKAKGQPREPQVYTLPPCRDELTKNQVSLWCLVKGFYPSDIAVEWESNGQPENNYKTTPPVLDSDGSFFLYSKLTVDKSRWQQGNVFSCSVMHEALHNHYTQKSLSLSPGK
# notes: also called human TA PD1-IL2v, MT204, non cleavable, N-term; P1AG0929
# Target: T1, PD1 on activated human CD4 and CD8 T cells (human, UniProt Q15116 25-288)
# T1 construct: whole, on cells; Endogenous PD1 on CD3/CD28-stimulated T cells; also called human PD1; PD1 receptor
# T1 sequence (Q15116 25-288): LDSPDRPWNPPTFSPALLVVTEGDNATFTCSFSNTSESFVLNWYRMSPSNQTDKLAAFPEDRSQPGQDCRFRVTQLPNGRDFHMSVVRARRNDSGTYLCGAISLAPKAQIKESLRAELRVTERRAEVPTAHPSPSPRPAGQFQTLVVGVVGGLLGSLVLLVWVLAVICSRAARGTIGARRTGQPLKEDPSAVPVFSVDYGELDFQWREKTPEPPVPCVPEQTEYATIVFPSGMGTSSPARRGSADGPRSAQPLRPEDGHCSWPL
# Assay: flow cytometry, CD3/CD28-activated human PBMCs gated on CD3+CD8+ T cells, FITC anti-human Fc secondary antibody; no Matriptase digestion described
# Protocol: (§1) PBMCs were bought from Biomex from a healthy donor (Lot 5000899PB). The PBMCs were stimulated for 3 days with CD3 and CD28 to induce upregulation of PD1 on T cells. Therefore, PBMCs were seeded in medium (RPMI1640, 10% FCS, 2 mM Glutamine) into cell culture flasks that were coated for 1 h at 37° C. with 1 μg/ml CD3 (clone OKT3, 302914, BioLegend). CD28 was added in solution to the PBMCs at a concentration of 1 μg/ml (clone CD28.2, 302914, BioLegend). After three days, PBMCs were harvested and transferred into a 96 well round bottom plate (200′000 cells per well). The cells were washed with FACS buffer (PBS, 2% FBS, 5 mM EDTA, 0.025% NaN3) and stained with 30 μl of corresponding TA PD1-IL2v constructs in FACS buffer for 30 min at 4° C. The cells were washed twice with FACS buffer to remove unbound molecules. Then 30 μl of the diluted FITC anti-mouse Fc specific secondary antibody (1:50 dilution, 115-096-071, Jackson ImmunoResearch) or for the human constructs the diluted FITC anti-human Fc specific secondary antibody (1:50 dilution, 115-096-098, Jackson ImmunoResearch) was added to the cells. After 30 min incubation at 4° C. the cells were washed twice with FACS buffer. To detect T cells, PBMCs were stained with 30 μl of a mixture of CD3 PE/Cyanine7 (clone UCHT1, 300420, BioLegend), CD4 PE (clone RPA-T4, 300508, BioLegend) and CD8 APC (clone SK1, 344722, BioLegend) for 30 min at 4° C. The unbound antibodies were removed by washing twice with FACS buffer. Finally the cells were resuspended in 150 μl FACs buffer and measured using a BD Fortessa gating on CD3+CD4+ cells (CD4 T cells) and CD3+CD8+ cells (CD8 T cells).
row,EC50 (read off the curve),Binder
1,~2 nM,B1
2,~2 nM,B2
3,~2 nM,B3

# Target: T1, PD1 on activated human CD4 and CD8 T …
# Assay: flow cytometry, CD3/CD28-activated human PBMCs gated on CD3+CD8+ T cells, PE anti-human Fc secondary antibody; TA constructs pre-incubated with Matriptase, unmasked controls not
# Protocol: (§2) Three formats of TA PD1-IL2v molecules and respective controls were assessed for their capacity to bind to activated PD1 positive CD8 T cells and CD4 T cells within PBMCs in comparison to the respective unmasked molecules.
# (§3) PBMCs were purchased from Biomex from a healthy donor (Lot 5000729PB). The PBMCs were stimulated for three days with CD3 and CD28 to induce upregulation of PD1 on T cells. Therefore, PBMCs were seeded in medium (RPMI1640, 10% FCS, 2 mM Glutamine) into cell culture flasks that were coated for 1 hour at 37° C. with 1 μg/ml CD3 (clone OKT3, 302914, BioLegend). CD28 was added in solution to the PBMCs at a concentration of 1 μg/ml (clone CD28.2, 302914, BioLegend). After three days, PBMCs were harvested and transferred into a 96 well round bottom plate (200′000 cells per well). The cells were washed with FACS buffer (PBS, 2% FBS, 5 mM EDTA, 0.025% NaN3) and stained with 30 μl of corresponding TA PD1-IL2v constructs in FACS buffer for 30 min at 4° C. Prior to the staining, 20 μg of the TA PD1-IL2v constructs were digested with 4 μl Matriptase (Enzo ˜2.5 U/μl, ALX-201-246-U25, Lot 12152015, or without Matriptase for the unmasked controls) for 2 hours at 37° C. in 40 μl Matriptase buffer (50 mM Tris, 50 mM NaCl, 0.01% Tween 20, pH 9.0). After the staining, the cells were washed twice with FACS buffer to remove unbound molecules. Then 30 μl of the diluted PE anti-human Fc specific secondary antibody (1:50 dilution, 109-116-170, Jackson ImmunoResearch) was added to the cells. After 30 min incubation at 4° C. the cells were washed twice with FACS buffer. To detect T cells, PBMCs were stained with 30 μl of a mixture of CD3 PE/Cyanine7 (clone UCHT1, 300420, BioLegend), CD4 FITC (clone RPA-T4, 300528, BioLegend) and CD8 APC/Cyanine7 (clone HIT8a, 300926, BioLegend) for 30 min at 4° C. The unbound antibodies were removed by washing twice with FACS buffer. Finally the cells resuspended in 150 μl FACS buffer and measured using a BD Fortessa gating on CD3+CD4+ cells (CD4 T cells) and CD3+CD8+ cells (CD8 T cells).
row,EC50 (read off the curve),Binder
1,~1 nM,B1
2,~1 nM,B2
3,~1 nM,B4
4,~0.8 nM,B3
5,~2 nM,B5

# Target: T1, PD1 on activated human CD4 and CD8 T …
# Assay: flow cytometry, CD3/CD28-activated human PBMCs gated on CD3+CD4+ T cells, FITC anti-human Fc secondary antibody; no Matriptase digestion described
# Protocol: as §1
row,EC50 (read off the curve),Binder
1,~2 nM,B1
2,~2 nM,B2
3,~2 nM,B3

# Target: T1, PD1 on activated human CD4 and CD8 T …
# Assay: flow cytometry, CD3/CD28-activated human PBMCs gated on CD3+CD4+ T cells, PE anti-human Fc secondary antibody; TA constructs pre-incubated with Matriptase, unmasked controls not
# Protocol: as §2, §3
row,EC50 (read off the curve),Binder
1,~0.8 nM,B1
2,~0.8 nM,B2
3,~0.8 nM,B4
4,~0.7 nM,B3
5,~1 nM,B5

# Reference: US20240376171A1 (Hoffmann-La Roche, published 2024)
